B1: HDV Ribozyme (parent)
chain: GGCCGGCAUGGUCCCAGCCUCCUCGCUGGCGCCGGCUGGGCAACAUUCCGAGGGGACCGUCCCCUCGGUAAUGGCGAAUGGGACCCA

Variants of B1 are the subject of the data set. As to the kind of experiment: self-cleavage, relative activity (ratio to wild type); higher = more cleavage; co-transcriptional.
On to GGCCGGCAGGGUCCCAGCCUCCUCGCUGGCGCCGGAUGGGCAACAUUCCGAGGGGACCGUCCCCUCGGUAAUGGCGAAUGGGACCCA [U9G C36A], for which the self-cleavage worked out at 0.401.

As to GGCCGGCAUGGCCCCAGCCUCCUCGCUGGCGCCGGCUGGGCAACAUUCCGAGGGGACCGUCCCCUCGGUAAUGGCGGAUGGGACCCA [U12C A77G], the self-cleavage amounted to 0.302.

On to GGCCGGCAUGGUCCCAGCCUCCUCGCUGGCGCCGGCUGGGCAACAUUCCGAGGGGCCCGUCCCCUCGGUAAUGGCGAAUGGGGCCCA [A56C A83G], for which the self-cleavage amounted to 1.01.

Take GGCCGGCAUGGUCCCUGCCUCGUCGCUGGCGCCGGCUGGGCAACAUUCCGAGGGGACCGUCCCCUCGGUAAUGGCGAAUGGGACCCA [A16U C22G]: the self-cleavage is 0.161.

In the case of GGCCGGCAGGGUCCCAGCCUCCUCGCUGGCGCCGGCUGGGCAACAUUCCGAGGGGACCGUCCCCUCGGUAAUGGCGAAUGGGACCCG [U9G A87G], the self-cleavage came out at 1.15.

Consider GGCCGGCAUGGUCCCAGCCUCCUCGCUGGCGCCGGCUGGGCAACAUUCCGAGGGUACCGUCCCCUCGGUAAUGGCGAAUGUGACCCA [G55U G81U], for which the self-cleavage is 0.272.

As for GGCCGGCAUGGUCCCAGCCUCCUCGCUGGCGCCGGCUGGGCAACAUUCAGAGGGGACCGUCCACUCGGUAAUGGCGAAUGGGACCCA [C49A C63A], the self-cleavage came to 0.597.

Regarding GGCCGGCAUGGUCCCAGCCUCCUCGCUGGCGCCGGCUAGGCAACAUUCCGAGGGGACCGUCCCCCCGGUAAUGGCGAAUGGGACCCA [G38A U65C], the self-cleavage amounted to 0.117.

On to GGCCGGCAUGGUCCCAGCCUCCUCGCUGGCGCCGGCUGGGCAACAUUCCAAGGGGACCCUCCCCUCGGUAAUGGCGAAUGGGACCCA [G50A G59C], for which the self-cleavage came out at 1.31.

Take GGCCGGCAUGGUACCAGCCUCCUCGCUGGCGCCGGCUGGGCAACAUUCCGAGGGGACCGUCCCCUCGGUAAUGGCGAAUGCGACCCA [C13A G81C]: the self-cleavage came out at 0.

Take GGCCGGCACGGUCCCAGCCUCCUCGCUGGCGCCGGCUGGGCAACAUUCCGAGGGGACCGUCCCCUCGGUAAUGCCGAAUGGGACCCA [U9C G74C]: the self-cleavage turned out to be 0.277.

GGCCGGCAUGGUCCCAGCCUCCUCGCUGGCUCCGGCUGGGCAACAUUCCGAGGGGACCGUGCCCUCGGUAAUGGCGAAUGGGACCCA [G31U C61G]: the self-cleavage was found to be 0.332.

Turning to GGCCGGCAUGGUCCCAGCCUCCUCGCUGGCGCCGGCUGGGCAACAUUCCGUGGGGACCGUCCCCUCGGUACUGGCGAAUGGGACCCA [A51U A71C], the self-cleavage was 0.856.

For the variant GGCCGGCAUGGUCCCAGCCUCCUCGCUGGCGGCGGCUGGGCAACAUUCCGAGGGGACCGUCCCCUCGGUAAUGGCGAAUAGGACCCA [C32G G80A], the self-cleavage amounted to 0.0764.

Turning to GGCCGGCUUGGUACCAGCCUCCUCGCUGGCGCCGGCUGGGCAACAUUCCGAGGGGACCGUCCCCUCGGUAAUGGCGAAUGGGACCCA [A8U C13A], the self-cleavage turned out to be 0.

In the case of GGCCGGCAUGGUCCCAGCCUCCUCGCUUGCGCCGGCUGGACAACAUUCCGAGGGGACCGUCCCCUCGGUAAUGGCGAAUGGGACCCA [G28U G40A], the self-cleavage was determined as 0.104.

Consider GGCCGGCAUGGUCCCAGCCUCCACGCUGGCGCCGGCUGGGCAACAUUCCGAGGGGAGCGUCCCCUCGGUAAUGGCGAAUGGGACCCA [U23A C57G], for which the self-cleavage turned out to be 1.06.

In the case of GGCCGGCAUGGUCCCAGCCUCCACGCUGGCGCCGGCUGGGCAACAUUCCGAGGGGAACGUCCCCUCGGUAAUGGCGAAUGGGACCCA [U23A C57A], the self-cleavage came to 1.09.

Turning to GGUCGGCAUGGUCCCAGCCUCCUCGCUGGGGCCGGCUGGGCAACAUUCCGAGGGGACCGUCCCCUCGGUAAUGGCGAAUGGGACCCA [C3U C30G], the self-cleavage amounted to 0.

Take GGCCGGCAUGGUCCCAGCCUCCUCGCUGGCGCCGGCUGGGCAACCUUCCGAGGGGACCGUCCCCUCAGUAAUGGCGAAUGGGACCCA [A45C G67A]: the self-cleavage worked out at 0.719.

As to GGCCGGCAUGGUCCCAGCCUCCUCGCUGGCGCCGGCUGGGCAACAAUCCGAGGGGACCGUCGCCUCGGUAAUGGCGAAUGGGACCCA [U46A C62G], the self-cleavage turned out to be 0.289.

Take GGCCGGCAUGGUCCCAGCCUCCUCGCUAGCGCCGGCUGGGCUACAUUCCGAGGGGACCGUCCCCUCGGUAAUGGCGAAUGGGACCCA [G28A A42U]: the self-cleavage came out at 0.0723.

For the variant GGCCGGCAUGGUCCCAGCCCCCUCGCUGGCGCCGGCUGGGCAACAUUCCGAGGGGACGGUCCCCUCGGUAAUGGCGAAUGGGACCCA [U20C C58G], the self-cleavage turned out to be 0.0923.

Regarding GGCCGGCAUGCUCCCAGCCUCCUCGCUGGCACCGGCUGGGCAACAUUCCGAGGGGACCGUCCCCUCGGUAAUGGCGAAUGGGACCCA [G11C G31A], the self-cleavage turned out to be 0.0804.

In the case of GGCCGGCAUGGUCCCAGCCUCGUCGCUGGCGCCGGCUGGGCAACAUUCCGAGGGGACCGUCCCCUCGGUAAUGGCGAAUGGGACCUA [C22G C86U], the self-cleavage was determined as 0.0923.

GGCCGGCAUGGUCCCAGCCUCCUCGCUGGCGCCGGCUGGGCAACAUUCGGAGGGAACCGUCCCCUCGGUAAUGGCGAAUGGGACCCA [C49G G55A]: the self-cleavage was 0.976.

For the variant GGCCGGCAUGGUCCCAGCCUCCUCGCUUGCGCCGGCUGGGCAACAUUCCGAGGGGACCGUCCCCUCGGUAAGGGCGAAUGGGACCCA [G28U U72G], the self-cleavage was determined as 0.0554.

As for GGCCGGCAUGGUCCCAGCCUCCUCGCUGGCGCAGGCUGGGCAAGAUUCCGAGGGGACCGUCCCCUCGGUAAUGGCGAAUGGGACCCA [C33A C44G], the self-cleavage is 0.0475.

AGCCGGCAUGGUCCCAGCCUCCUCGCUGGCGCCGGCUGGGCAACAUUCCGAGGGGACCAUCCCCUCGGUAAUGGCGAAUGGGACCCA [G1A G59A]: the self-cleavage was 0.0573.

As to GGCCGGCAUGGACCCAGCCUCCACGCUGGCGCCGGCUGGGCAACAUUCCGAGGGGACCGUCCCCUCGGUAAUGGCGAAUGGGACCCA [U12A U23A], the self-cleavage was 0.192.

As to GGGCGGCAUGGUCCCAGCCUCCUCGCUGGCGCCGGCUGGGCAACAUUCCGAGGGGACCGUCCCCUCGGUAAUGGCGAAUGGGACCUA [C3G C86U], the self-cleavage stood at 0.885.

As for GGCCGGCGUGGUCCCCGCCUCCUCGCUGGCGCCGGCUGGGCAACAUUCCGAGGGGACCGUCCCCUCGGUAAUGGCGAAUGGGACCCA [A8G A16C], the self-cleavage worked out at 0.639.

(Values after the RNAGym collection of RNA variant scans (doi:10.7554/elife.80360).)
